Experimental data taken from article PMC5289646, “Proline Metabolism is Essential for Trypanosoma brucei brucei Survival in the Tsetse Vector” (PLoS Pathogens, 2017).

How the values were obtained:
[1] = substrate: NC(=O)c1ccc[n+]([C@@H]2O[C@H](COP(=O)(O)OP(=O)(O)OC[C@H]3O[C@@H](n4cnc5c(N)ncnc54)[C@H](O)[C@@H]3O)[C@@H](O)[C@H]2O)c1; assay: cells, lysate or membranes; conditions: 600 μM P5C/γGS (saturating), 0.01-2.5 mM NAD+, potassium phosphate pH 7.2, 28°C, crude homogenate, varied: cofactor
[2] = substrate: O=C(O)C1CCC=N1; assay: cells, lysate or membranes; conditions: 1 mM NAD+ (saturating), 20-600 μM P5C/γGS, potassium phosphate pH 7.2, 28°C, racemic substrate in equilibrium with open form, crude homogenate

B1: TbP5CDH (Trypanosoma brucei brucei TREU927) (protein)
chain: PPAVNERMDSFQPGSDSARGTLEACKRLRCGATDCPIVIGGKEYRTDNAINRMIPSSHQQQVAKGYNATPELAQKAIDTALGAAKEWSQMPFKDRAAIFLHAAHLISTKYRHELRAATMLGQSKNPFQAEIDVIAESCDFLRFSVKYAEELYNQQPISPASGPVWNALDYRPLEGFVSVIAPFNFSAIAANLVACPALMGNVILWKPSPNAVLSNYLLYKVFEEAGLPAGVVNFMPCEPKVMTEVVNSHPELAGVAFTGSTNVFLSINKQIYSRLEEYRNIPRISGETGGKDFHLIHPTADMKMTAALTVRGAFEYQGQKCSATSRIYVPQSRWEELKGYLLELHGKLKMGQPDDFQSFMCAVIDETAFDRNKKYIDIAKADSSAYTIIAGGGCDKSEGWFIQPTIIVAKDPNAQLLREEIFGPILTVHVYDDSKPDFWSEACNLVNNATKYALTGSIFAQDRKAIRDATEKHLRYAAGNYYINDKCTGAVVGQQPFGGARASGSNDKPGSALFLTRWVSARTIKENFDHSAQVSYPHQLPDYVTL
- Km [1]: 0.38 ± 0.04 mM
- Km [2]: 92.7 ± 14 µM
